This series in a line: yeast display, Sf9 membrane polyspecificity reagent, FACS + sequencing; frameworks hold sequencing errors. The gist of the method:
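Galactose-induced (36–48 hours) yeast carrying a synthetic nanobody display library were exposed to 10% biotinylated, detergent-solubilized Sf9 membrane reagent at 4 °C for 1 hour. FACS followed streptavidin microbead enrichment, using low and high (top ~1%) gates for expression (anti-HA) and reagent binding (streptavidin). Colony PCR, MiSeq 2 × 250 sequencing and CDR-length filtering followed. Labels for polyreactivity reflect the gate of origin.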
“QVQLVESGGGLVQAGGSLRLSCAASGRILRYYAMGWYRQAPGKERELVASITSGGSTYYADSVKGRFTISRDNAKNTVSLQMNSLKPEDTAVYYCAARNSYRVDLSYYAYDYWGQGTQVTVSS”: the “polyreactivity (PSR sort gate)” value is listed as “high polyreactivity”.

Take “QVQLVESGGGLVQAGGSLRLICAASGIIFRYYAMGWYRQAPGKERELVASISRGGSTYYADSVKGRFTISRDNAKNTVYLQMNSLKPEDTAVYYCAADVYPVYLYGYEYCGQGTQVTVSS”: the “polyreactivity (PSR sort gate)” value is recorded as “high polyreactivity”. “QVQLVESGGGLVQAGGSLRLSCAASGSIFARYAMGWYRQAPGKERELVAAISRNGGSTYYADSVKGRFTISRDNAKNTVYLQMNSLKPEDTAVYYCAATQVGHYRIYDYWGQGTQVTVSS”: the “polyreactivity (PSR sort gate)” value is on record as “low polyreactivity”.

With “QVQLVESGGGLVQPGGSLRLSCAASGSIFYCNAMGSYRQAPGKEREFVAGITTSGGSTYYADSVKGRFTISRDNAKNTVYLQMNSLKPDDTAVYYCNKVWVYAVTPSSWYKYGSWGQGNQVTVSS”, the “polyreactivity (PSR sort gate)” value was “low polyreactivity”. The result for “QVQLVESGGRLVQAGGSLRLSCAASGITFYDYAMGWYRQAPGKERELVAAITWNGGDTYYADSVKGRFTISRDNAKNTVYLQMHSLKPEDTAVYYCNATRHYFGGFHYEYYYWGQGTQVTVSS” reads “low polyreactivity”. As for “QVQLVESGGGLVQAGGSLRLSCAASGSIFVSNAMGWYRQAPGKERELVAAISQSGGSTYYADSVKGRFTISRDNAKNTVYLQMNSLKPEDTAVYYCATPIRSGFRIYDYWGQGTQVTVSS”, the “polyreactivity (PSR sort gate)” value was “low polyreactivity”. “QVQLVESGGGLVQAGGSLRLSCAASGSIFKYYVMGWYRQAPGKERELVAAISSGGGSTYYADSVKGRFTISRDNAKNTVYLQMNSLKPEDTAVYYCNKKYRSRWQGPFDYWGQGTQVTVSS”: the “polyreactivity (PSR sort gate)” value was “high polyreactivity”. In the case of “QVQLVESGGGLVQAGGSLRITCAGSGRTFFGYAMGWYRQAPGKERELVAAITRGGSTNYADSVKGRFTISLDNGKNTLYLQMNSLKPEDSAVYYCAVGVPTTFKNRRYFRMDYWGQGTQGTVSS”, the “polyreactivity (PSR sort gate)” value is recorded as “high polyreactivity”. For “QVQLVESGGGLDQAGGSLRLSCAASGSIFSYYAMGWYRPAPGKERELVADNRWSGGSTYYADSVKGRFTISRDKAKNTVYLQMNSLKPEDTAVYYCNTLYLVYLYWTSPTPSDLFDYWGQGTQVTVSS” the value was “low polyreactivity”; for “QVQLVESGGGLVQAGGSLRLSCAASGRTFFKNAMGWYRQAPGKERELVASISSRSGTTYYADSVKGRFTISRDNAKNTVYLQMNSLKPEDTAVYYCAADIYWWRGSTHGMDYWGQGTQVTVSS”, “high polyreactivity”; for “QVQLVESGGGLVQAGGSLRLSCAASGSIFTFNAMGWYRQAPGKERELVAAINWSGTRTYYADSVKGRFTISRDNAKNTVYLQMNSLKPEDTAVYYCNTRPSKRYGYDYWGQGTQVTVSS”, “high polyreactivity”. “QVQLVESGGGIVQAGGSLRLSCAASGIIFPLYAMGWYRPAPGKERELVAAIRSTGGSTYYADSVKGRFTISRDNANNTVYLQMNSLKPEDTAVYYCNARQNRRQGNVGYWGQGTQVTVSS”: the “polyreactivity (PSR sort gate)” value was “low polyreactivity”. As to “QVQLVESGGGLVQAGGSLRLSCAASGRIFWGYAMGWYRQAPGKERELVAGIRTSGGTTYYADSVKGRFTISRDNAKNTVYLQMNSLKPEDTAVYYCAVVQYTVYNSLYDYWGQGTQVTVSS”, the “polyreactivity (PSR sort gate)” value is “low polyreactivity”.

With “QDQLVESGGGLVQAGGSLRLSCSASGSIVGLYAMGWYRQAPGKERELVAAITASDGYTYYADSVKGRFTNSRDNAKNTVYLQMNSLKPEDTAVYYCNADAYSGYFLFDYWGQGTQVNVSS”, the “polyreactivity (PSR sort gate)” value is “low polyreactivity”. The result for “QVQLVESGGGLVQAGGSLRLSCAASGFTFEENAMGWYRQAPGKERELVAAINWSGGNTYYADSVKGRFTISRDNAKNTVYLQMNSLKPEDTAVYYCAADSPRYYYWVGPYYGYDYWGQGTQVTVSS” reads “high polyreactivity”.

With “QVQLVESGGGLVQAGGSLRLSCAASGITFYINAMGWYRQAPGKERELVAVIDSRGSSTFYADSVKGRFTISRDNAKNTVYLVMKSLKPEDTAVYYCAAEPFWDYYATFYWKYGYWGQGTQVTVSS”, the “polyreactivity (PSR sort gate)” value is recorded as “low polyreactivity”.

(Values after the nanobody polyreactivity screen of Harvey et al. (2022).)
